Measurements as given in article PMC9481161.

Biological target: His6-MglB (Myxococcus xanthus) (UniProt Q1DB03)
Chain of UniProt Q1DB03 (Q1DB03 entry or part of it): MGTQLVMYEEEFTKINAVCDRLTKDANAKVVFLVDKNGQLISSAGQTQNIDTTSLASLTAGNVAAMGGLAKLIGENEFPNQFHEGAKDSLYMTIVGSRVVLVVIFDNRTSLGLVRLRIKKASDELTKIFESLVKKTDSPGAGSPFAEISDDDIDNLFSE

For Strep-RomY (natural protein), the MglA GTPase activity, malachite green-based assay; 3 μM MglA-His6 mixed 1:2:2 with MglB and Strep-RomY (against ~18 with MglB alone) was 31 GTP/MglA/hr and the MglA GTPase activity, regenerative coupled enzyme assay; 3 μM MglA-His6 mixed 1:2:2 with MglB and Strep-RomY (against ~12 with MglB alone) was 25 GTP/MglA/hr.
